According to FireProtDB (doi:10.1002/pro.5560031114):
“And” between values parts separate entries of the source, which are not always exact repeats. Identical values can stand only once.

Conditions: Escherichia coli, pH 7, Thermal, DSC, Na phosphate 100 mM, NaCl 200 mM, reversible: yes, whole UniProt chain shown

B1: Regulatory protein rop wild type, P03051 (protein)
chain: MTKQEKTALNMARFIRSQTLTLLEKLNELDADEQADICESLHDHADELYRSCLARFGDDGENL
unfolding free energy (74.6 °C): 3.1 kcal/mol and 5.6 kcal/mol | unfolding enthalpy (calorimetric): 114 kcal/mol and 83.1 kcal/mol and 94.3 kcal/mol | unfolding enthalpy (van 't Hoff): 132 kcal/mol and 79.8 kcal/mol and 104 kcal/mol
